The numbers were not newly measured in paper PMC6540150, which cites them from elsewhere.

The data set deals with SOUL BH3 (Homo sapiens) (UniProt Q9Y5Z4).

pKd: −log10 of the molar value.

Consider Bcl-xL (from UniProt Q07817), for which the pKd (usually the Kd on a negative log10 scale, so that one unit is a factor of ten) was 4.40.
